# Assay results from patent US12679878B2, “CRF2 receptor agonists and their use in therapy” (SANOFI, priority 2020, dated 2026).
# Starred links: 1 amine or outer side, 2 acyl side, 3 side chain; linkers in the order of their positions; H or OH if unused. Non-standard residues stand in square brackets, D forms with d. Groups on a side chain read outwards from the residue. No end group written: not given here. *: point of attachment. C18 diacid = O=C(O)CCCCCCCCCCCCCCCCC(=O)*; γGlu = O=C(O)[C@H](CCC(=O)[*:2])N[*:1]; AEEA = NCCOCCOCC(=O)O; Aib = CC(C)(N)C(=O)O
# T1: anti-target CRF1R receptor (UniProt P34998 24-415, limits assumed)
# T1 sequence (looked up): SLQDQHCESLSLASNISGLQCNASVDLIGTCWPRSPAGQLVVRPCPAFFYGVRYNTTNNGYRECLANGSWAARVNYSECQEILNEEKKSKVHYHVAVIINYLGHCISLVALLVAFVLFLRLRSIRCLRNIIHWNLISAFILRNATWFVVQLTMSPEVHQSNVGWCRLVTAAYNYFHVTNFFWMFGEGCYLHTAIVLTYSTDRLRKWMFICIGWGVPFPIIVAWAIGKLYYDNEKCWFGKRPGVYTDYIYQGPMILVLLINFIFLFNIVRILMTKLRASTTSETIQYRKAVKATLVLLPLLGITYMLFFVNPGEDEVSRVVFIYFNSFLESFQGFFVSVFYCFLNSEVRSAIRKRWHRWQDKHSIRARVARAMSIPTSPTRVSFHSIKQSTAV
# B1: peptide of SEQ ID NO: 67 (peptide)
# peptide: IVLSLDVPIKLK([AEEA-AEEA-γGlu-C18 diacid])QILLEQEKQKKQREQAETNKQILAQV-NH2
# modifications: N-terminus assumed
# SMILES: CC[C@H](C)[C@H](N)C(=O)N[C@H](C(=O)N[C@@H](CC(C)C)C(=O)N[C@@H](CO)C(=O)N[C@@H](CC(C)C)C(=O)N[C@@H](CC(=O)O)C(=O)N[C@H](C(=O)N1CCC[C@H]1C(=O)N[C@H](C(=O)N[C@@H](CCCCN)C(=O)N[C@@H](CC(C)C)C(=O)N[C@@H](CCCCNC(=O)COCCOCCNC(=O)COCCOCCNC(=O)CC[C@H](NC(=O)CCCCCCCCCCCCCCCCC(=O)O)C(=O)O)C(=O)N[C@@H](CCC(N)=O)C(=O)N[C@H](C(=O)N[C@@H](CC(C)C)C(=O)N[C@@H](CC(C)C)C(=O)N[C@@H](CCC(=O)O)C(=O)N[C@@H](CCC(N)=O)C(=O)N[C@@H](CCC(=O)O)C(=O)N[C@@H](CCCCN)C(=O)N[C@@H](CCC(N)=O)C(=O)N[C@@H](CCCCN)C(=O)N[C@@H](CCCCN)C(=O)N[C@@H](CCC(N)=O)C(=O)N[C@@H](CCCNC(=N)N)C(=O)N[C@@H](CCC(=O)O)C(=O)N[C@@H](CCC(N)=O)C(=O)N[C@@H](C)C(=O)N[C@@H](CCC(=O)O)C(=O)N[C@H](C(=O)N[C@@H](CC(N)=O)C(=O)N[C@@H](CCCCN)C(=O)N[C@@H](CCC(N)=O)C(=O)N[C@H](C(=O)N[C@@H](CC(C)C)C(=O)N[C@@H](C)C(=O)N[C@@H](CCC(N)=O)C(=O)N[C@H](C(N)=O)C(C)C)[C@@H](C)CC)[C@@H](C)O)[C@@H](C)CC)[C@@H](C)CC)C(C)C)C(C)C
# B2: peptide of SEQ ID NO: 70 (peptide)
# peptide: IVLSLDVPIKLK([AEEA-AEEA-γGlu-C18 diacid])QILLEQERQKKQREQAETN[Aib]QILAQV-NH2
# modifications: N-terminus assumed
# SMILES: CC[C@H](C)[C@H](N)C(=O)N[C@H](C(=O)N[C@@H](CC(C)C)C(=O)N[C@@H](CO)C(=O)N[C@@H](CC(C)C)C(=O)N[C@@H](CC(=O)O)C(=O)N[C@H](C(=O)N1CCC[C@H]1C(=O)N[C@H](C(=O)N[C@@H](CCCCN)C(=O)N[C@@H](CC(C)C)C(=O)N[C@@H](CCCCNC(=O)COCCOCCNC(=O)COCCOCCNC(=O)CC[C@H](NC(=O)CCCCCCCCCCCCCCCCC(=O)O)C(=O)O)C(=O)N[C@@H](CCC(N)=O)C(=O)N[C@H](C(=O)N[C@@H](CC(C)C)C(=O)N[C@@H](CC(C)C)C(=O)N[C@@H](CCC(=O)O)C(=O)N[C@@H](CCC(N)=O)C(=O)N[C@@H](CCC(=O)O)C(=O)N[C@@H](CCCNC(=N)N)C(=O)N[C@@H](CCC(N)=O)C(=O)N[C@@H](CCCCN)C(=O)N[C@@H](CCCCN)C(=O)N[C@@H](CCC(N)=O)C(=O)N[C@@H](CCCNC(=N)N)C(=O)N[C@@H](CCC(=O)O)C(=O)N[C@@H](CCC(N)=O)C(=O)N[C@@H](C)C(=O)N[C@@H](CCC(=O)O)C(=O)N[C@H](C(=O)N[C@@H](CC(N)=O)C(=O)NC(C)(C)C(=O)N[C@@H](CCC(N)=O)C(=O)N[C@H](C(=O)N[C@@H](CC(C)C)C(=O)N[C@@H](C)C(=O)N[C@@H](CCC(N)=O)C(=O)N[C@H](C(N)=O)C(C)C)[C@@H](C)CC)[C@@H](C)O)[C@@H](C)CC)[C@@H](C)CC)C(C)C)C(C)C
# B3: peptide of SEQ ID NO: 69 (peptide)
# peptide: IVLSLDVPIKLK([AEEA-AEEA-γGlu-C18 diacid])K[Aib]LLEQERQKKQREQAETNKQILAQV-NH2
# modifications: N-terminus assumed
# SMILES: CC[C@H](C)[C@H](N)C(=O)N[C@H](C(=O)N[C@@H](CC(C)C)C(=O)N[C@@H](CO)C(=O)N[C@@H](CC(C)C)C(=O)N[C@@H](CC(=O)O)C(=O)N[C@H](C(=O)N1CCC[C@H]1C(=O)N[C@H](C(=O)N[C@@H](CCCCN)C(=O)N[C@@H](CC(C)C)C(=O)N[C@@H](CCCCNC(=O)COCCOCCNC(=O)COCCOCCNC(=O)CC[C@H](NC(=O)CCCCCCCCCCCCCCCCC(=O)O)C(=O)O)C(=O)N[C@@H](CCCCN)C(=O)NC(C)(C)C(=O)N[C@@H](CC(C)C)C(=O)N[C@@H](CC(C)C)C(=O)N[C@@H](CCC(=O)O)C(=O)N[C@@H](CCC(N)=O)C(=O)N[C@@H](CCC(=O)O)C(=O)N[C@@H](CCCNC(=N)N)C(=O)N[C@@H](CCC(N)=O)C(=O)N[C@@H](CCCCN)C(=O)N[C@@H](CCCCN)C(=O)N[C@@H](CCC(N)=O)C(=O)N[C@@H](CCCNC(=N)N)C(=O)N[C@@H](CCC(=O)O)C(=O)N[C@@H](CCC(N)=O)C(=O)N[C@@H](C)C(=O)N[C@@H](CCC(=O)O)C(=O)N[C@H](C(=O)N[C@@H](CC(N)=O)C(=O)N[C@@H](CCCCN)C(=O)N[C@@H](CCC(N)=O)C(=O)N[C@H](C(=O)N[C@@H](CC(C)C)C(=O)N[C@@H](C)C(=O)N[C@@H](CCC(N)=O)C(=O)N[C@H](C(N)=O)C(C)C)[C@@H](C)CC)[C@@H](C)O)[C@@H](C)CC)C(C)C)C(C)C
# B4: peptide of SEQ ID NO: 75 (peptide)
# peptide: IVLSLDVPIKLK([AEEA-AEEA-γGlu-C18 diacid])QILLKQERQKKQRQQAETN[Aib]QILAQV-NH2
# modifications: N-terminus assumed
# SMILES: CC[C@H](C)[C@H](N)C(=O)N[C@H](C(=O)N[C@@H](CC(C)C)C(=O)N[C@@H](CO)C(=O)N[C@@H](CC(C)C)C(=O)N[C@@H](CC(=O)O)C(=O)N[C@H](C(=O)N1CCC[C@H]1C(=O)N[C@H](C(=O)N[C@@H](CCCCN)C(=O)N[C@@H](CC(C)C)C(=O)N[C@@H](CCCCNC(=O)COCCOCCNC(=O)COCCOCCNC(=O)CC[C@H](NC(=O)CCCCCCCCCCCCCCCCC(=O)O)C(=O)O)C(=O)N[C@@H](CCC(N)=O)C(=O)N[C@H](C(=O)N[C@@H](CC(C)C)C(=O)N[C@@H](CC(C)C)C(=O)N[C@@H](CCCCN)C(=O)N[C@@H](CCC(N)=O)C(=O)N[C@@H](CCC(=O)O)C(=O)N[C@@H](CCCNC(=N)N)C(=O)N[C@@H](CCC(N)=O)C(=O)N[C@@H](CCCCN)C(=O)N[C@@H](CCCCN)C(=O)N[C@@H](CCC(N)=O)C(=O)N[C@@H](CCCNC(=N)N)C(=O)N[C@@H](CCC(N)=O)C(=O)N[C@@H](CCC(N)=O)C(=O)N[C@@H](C)C(=O)N[C@@H](CCC(=O)O)C(=O)N[C@H](C(=O)N[C@@H](CC(N)=O)C(=O)NC(C)(C)C(=O)N[C@@H](CCC(N)=O)C(=O)N[C@H](C(=O)N[C@@H](CC(C)C)C(=O)N[C@@H](C)C(=O)N[C@@H](CCC(N)=O)C(=O)N[C@H](C(N)=O)C(C)C)[C@@H](C)CC)[C@@H](C)O)[C@@H](C)CC)[C@@H](C)CC)C(C)C)C(C)C
# B5: peptide of SEQ ID NO: 72 (peptide)
# peptide: IVLSLDVPIKLK([AEEA-AEEA-γGlu-C18 diacid])QILLEQERQKKQRQQAETN[Aib]QILAQV-NH2
# modifications: N-terminus assumed
# SMILES: CC[C@H](C)[C@H](N)C(=O)N[C@H](C(=O)N[C@@H](CC(C)C)C(=O)N[C@@H](CO)C(=O)N[C@@H](CC(C)C)C(=O)N[C@@H](CC(=O)O)C(=O)N[C@H](C(=O)N1CCC[C@H]1C(=O)N[C@H](C(=O)N[C@@H](CCCCN)C(=O)N[C@@H](CC(C)C)C(=O)N[C@@H](CCCCNC(=O)COCCOCCNC(=O)COCCOCCNC(=O)CC[C@H](NC(=O)CCCCCCCCCCCCCCCCC(=O)O)C(=O)O)C(=O)N[C@@H](CCC(N)=O)C(=O)N[C@H](C(=O)N[C@@H](CC(C)C)C(=O)N[C@@H](CC(C)C)C(=O)N[C@@H](CCC(=O)O)C(=O)N[C@@H](CCC(N)=O)C(=O)N[C@@H](CCC(=O)O)C(=O)N[C@@H](CCCNC(=N)N)C(=O)N[C@@H](CCC(N)=O)C(=O)N[C@@H](CCCCN)C(=O)N[C@@H](CCCCN)C(=O)N[C@@H](CCC(N)=O)C(=O)N[C@@H](CCCNC(=N)N)C(=O)N[C@@H](CCC(N)=O)C(=O)N[C@@H](CCC(N)=O)C(=O)N[C@@H](C)C(=O)N[C@@H](CCC(=O)O)C(=O)N[C@H](C(=O)N[C@@H](CC(N)=O)C(=O)NC(C)(C)C(=O)N[C@@H](CCC(N)=O)C(=O)N[C@H](C(=O)N[C@@H](CC(C)C)C(=O)N[C@@H](C)C(=O)N[C@@H](CCC(N)=O)C(=O)N[C@H](C(N)=O)C(C)C)[C@@H](C)CC)[C@@H](C)O)[C@@H](C)CC)[C@@H](C)CC)C(C)C)C(C)C
# Target: rat CRF2R α receptor (rat, UniProt P47866 20-411)
# Sequence (P47866 20-411): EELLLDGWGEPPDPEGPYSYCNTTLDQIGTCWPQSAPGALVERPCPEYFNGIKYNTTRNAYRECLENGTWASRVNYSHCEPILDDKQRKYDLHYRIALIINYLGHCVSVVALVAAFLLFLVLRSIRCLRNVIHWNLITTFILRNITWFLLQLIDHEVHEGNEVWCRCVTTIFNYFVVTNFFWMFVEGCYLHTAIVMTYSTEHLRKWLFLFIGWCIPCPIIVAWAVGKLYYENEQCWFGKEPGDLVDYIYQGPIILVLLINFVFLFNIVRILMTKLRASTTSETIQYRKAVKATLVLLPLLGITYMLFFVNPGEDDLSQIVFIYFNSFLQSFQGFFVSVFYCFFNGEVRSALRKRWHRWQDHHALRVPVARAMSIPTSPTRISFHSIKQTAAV
# Assay: cell-based or functional assay
row,"EC50 [nM], 0% HSA (cAMP, A7R5 cells) [nM]",Binder
1,0.66,B1
2,8.72,B2
3,7.33,B3
4,1.71,B4
5,4.31,B5

# Target: T1, anti-target CRF1R receptor
# Assay: cell-based or functional assay
"EC50[nM] 0% HSA (cAMP, CRF1R-overexpression CHO cells) [nM]","Emax (%) (cAMP, CRF1R-overexpression CHO cells)",Binder
> 1000,9.18,B1
> 1000,3.03,B2
> 1000,0.02,B3
> 1000,2.7,B4
> 1000,2.58,B5
